Measured values published in patent publication US20230348616A1 (MIE UNIVERSITY, published 2023).
Like-named read-outs stand apart in the source and are kept apart here.

Tests used:
[1] = molecular target: T1, HLA-A*0201/β2-microglobulin/NY-ESO peptide complex (human, biotinylated with E. coli biotin ligase at the added recognition sequence (biotinylated form used in the ELISA)); test: SPR (Biacore T200), scFv captured by anti-His antibody, HLA/NY-ESO as analyte, single cycle kinetics
T1 construct: also called HLA/NY-ESO; HLA-A2/NY-ESO
Method: With the use of Biacore T200, anti-HLA/NY-ESO scFv was captured as a ligand by the immobilized anti-His antibody, and the antigen was assayed as an analyte. As the antigen, HLA/NY-ESO prepared in 1)-1 was used. The anti-His antibody (His Capture kit, GE Healthcare) was immobilized on Sensor Chip CM5 (GE Healthcare) in accordance with the instructions of the kit. The anti-HLA/NY-ESO scFv constructs diluted to 0.5 μg/ml in HBS-EP+ (GE Healthcare) to be evaluated were brought into contact therewith at 10 μl/min for 60 seconds for immobilization. Thereafter, the samples were added to the HLA/NY-ESO analytes diluted to various levels with HBS-EP+ at a flow rate of 30 μl/min for 120 seconds and dissociation was assayed for 600 seconds.

[2] = molecular target: T2, HLA-A2/NY-ESO peptide complex presented on cells (human); test: flow cytometry on peptide-pulsed T2 cells, scFv 100 nM
T2 construct: whole, on cells; also called HLA/NY-ESO; T2 cells supplemented with the NY-ESO peptide
Method: (§1) The resultant was washed two times in the AIM-V medium containing 20% FBS, the concentration thereof was adjusted to an adequate level with PBS containing 5% FBS, the LIVE/DEAD Fixable Dead Cell Stain Kit (Thermo Fisher Scientific) was added thereto, and the resultant was allowed to stand at 4° C. for 30 minutes. The cells were washed 2 times in PBS containing 5% FBS, the washed cells were divided into two groups, the cells in PBS containing 5% FBS were seeded on a 96-well U-bottom microplate at 10⁵ cells/well, and the plate was subjected to centrifugation, followed by removal of the supernatant. Anti-HLA/NY-ESO scFv diluted to 100 nM with PBS containing 5% FBS was added at 25 μl/well to one of the divided cells, and the resultant was allowed to stand at 4° C. for 30 minutes. The cells were washed 2 times in PBS containing 5% FBS, Penta-His Alexa Fluor488 (QIAGEN) diluted in PBS containing 5% FBS was added at 25 μl/well, and the resultant was allowed to stand at 4° C. for 30 minutes. The cells were washed 2 times in PBS containing 5% FBS, Anti-mouse-IgG Alexa Fluor488 (Thermo Fisher Scientific) diluted in PBS containing 5% FBS was added at 25 μl/well, and the resultant was allowed to stand at 4° C. for 30 minutes. The cells were washed 2 times in PBS containing 5% FBS, immobilized with Mildform 10 N (FUJIFILM Wako Pure Chemical Corporation) overnight, and resuspended in PBS containing 5% FBS. […] The cells were washed 2 times in PBS containing 5% FBS, immobilized with Mildform 10 N (FUJIFILM Wako Pure Chemical Corporation) overnight, and resuspended in PBS containing 5% FBS. The cell suspensions were subjected to detection using a flow cytometer (CantoII, Becton Dickinson). […] The standardized gMFI indicating the binding affinity of each scFv standardized with the amount of the HLA/peptide complex on the T2 cells was determined in accordance with the following equation.

gp100 [3] = molecular target: T3, gp100 (human); test: as above
T3 construct: cell surface;cell surface complex; also called HLA-A2 / gp100 peptide complex on T2 cells
Method: as §1

[4] = molecular target: T2, HLA-A2/NY-ESO peptide complex presented …; test: as above; remark: listed apart in the source
Method: (§2) The cells were washed 2 times in PBS containing 5% FBS, immobilized with Mildform 10 N (FUJIFILM Wako Pure Chemical Corporation) overnight, and resuspended in PBS containing 5% FBS. The cell suspensions were subjected to detection using a flow cytometer (CantoII, Becton Dickinson). […] The standardized gMFI indicating the binding affinity of each scFv standardized with the amount of the HLA/peptide complex on the T2 cells was determined in accordance with the following equation.
(§3) The 9-mer peptide shown in FIG. 2A was selected as a homologous peptide for evaluation of binding specificity of anti-HLA/NY-ESO scFv. […] The standardized gMFI indicating the binding affinity of each scFv standardized with the amount of the HLA/peptide complex on the T2 cells was determined in accordance with the following equation.

[5] = molecular target: T4, HLA-A2 / homologous peptide PRKD2 complex on T2 cells (human); test: as above
T4 construct: whole, on cells; also called T2 cells supplemented with homologous peptide PRKD2
Method: as §2, §3

[6] = molecular target: T5, HLA-A2 / homologous peptide DOLPP1 complex on T2 cells (human); test: as above
T5 construct: whole, on cells; also called T2 cells supplemented with homologous peptide DOLPP1
Method: as §2, §3

[7] = molecular target: T6, HLA-A2 / homologous peptide P2RY8 complex on T2 cells (human); test: as above
T6 construct: whole, on cells; also called T2 cells supplemented with homologous peptide P2RY8
Method: as §2, §3

[8] = molecular target: T7, HLA-A2 / homologous peptide CD163 complex on T2 cells (human); test: as above
T7 construct: whole, on cells; also called T2 cells supplemented with homologous peptide CD163
Method: as §2, §3

[9] = molecular target: T8, HLA-A2 / homologous peptide IL20RB complex on T2 cells (human); test: as above
T8 construct: whole, on cells; also called T2 cells supplemented with homologous peptide IL20RB
Method: as §2, §3

gp100 [10] = molecular target: T3, gp100; test: as above; remark: listed apart in the source
Method: as §2, §3

[11] = molecular target: T4, HLA-A2 / homologous peptide PRKD2 …; test: flow cytometry, peptide-pulsed T2 cells
[12] = molecular target: T5, HLA-A2 / homologous peptide DOLPP1 …; test: flow cytometry, peptide-pulsed T2 cells
[13] = molecular target: T6, HLA-A2 / homologous peptide P2RY8 …; test: flow cytometry, peptide-pulsed T2 cells
[14] = molecular target: T7, HLA-A2 / homologous peptide CD163 …; test: flow cytometry, peptide-pulsed T2 cells
[15] = molecular target: T8, HLA-A2 / homologous peptide IL20RB …; test: flow cytometry, peptide-pulsed T2 cells

B1: NYA-2060 (scFv)
scFv: GEVQLVESGGGLVQPGGSLRLSCAASGFSIRSYDIHWVRQAPGKGLEWVATISYDGSQKYYADSVKGRFTISRDESKNTLYLQMNSLRAEDTAVYHCARGSSGHYEAFDIWGQGTLVTVSSGGGGSGGGGSGGGGSQSVLTQPPSVSAAPGQKVTISCSGSSSNIGNWYVSWYQQLPGTAPKLLIYDNNKRPSGIPDRFSGSKSGTSATLGITGLQTGDEADYYCGTWDSSLSAPWVFGGGTKVTVLGAAAGAGGDYKDDDDKGAAAHHHHHH
notes: also called NYA-2060 tag adduct
For B1, the Kd [1] was 1.1 nM, the “standardized gMFI” value [2] was 8.78 and the “standardized gMFI” value (gp100 [3]) was 0.41. The “standardized gMFI” value [4] was 11.2, the “standardized gMFI” value [5] was 0.33 and the “standardized gMFI” value [6] was 0.42. For the same binder, the “standardized gMFI” value [7] was 0.62, the “standardized gMFI” value [8] was 0.47 and the “standardized gMFI” value [9] was 0.45. The “standardized gMFI” value (gp100 [10]) was 0.32, the binding result [11] was “no binding (tested: 100 nM)” and the binding result [12] was “no binding (tested: 100 nM)”. B1: no binding (tested: 100 nM) [13]; no binding (tested: 100 nM) [14]; no binding (tested: 100 nM) [15].

B2: NYA-2047 (scFv)
scFv: GQVQLVESGGGVVQPGRSLRLSCAASGFSIRSYDMHWVRQAPGKGLEWVATISYDGSQKYYADSVKGRFTISRDNSKNTLYLQMSSLRAEDTAVYHCARGSSGHYEAFDIWGQGTLVTVSSGGGGSGGGGSGGGGSQSVLTQPPSVSAAPGQKVTISCSGSSSNIGNWYVSWYQQLPGTAPKLLIYDNNKRPSGIPDRFSGSKSGTSATLGITGLQTGDEADYYCGTWDSSLSAPWVFGGGTKVTVLGAAAGAGGDYKDDDDKGAAAHHHHHH
B2 was tested, and the Kd [1] was 5.3 nM, the “standardized gMFI” value [2] was 7.99 and the “standardized gMFI” value (gp100 [3]) was 0.39. For the same binder, the “standardized gMFI” value [4] was 10.2, the “standardized gMFI” value [5] was 0.35 and the “standardized gMFI” value [6] was 0.4. The “standardized gMFI” value [7] was 0.72, the “standardized gMFI” value [8] was 0.47 and the “standardized gMFI” value [9] was 0.43. The “standardized gMFI” value (gp100 [10]) was 0.3, the binding result [11] was “no binding (tested: 100 nM)” and the binding result [12] was “no binding (tested: 100 nM)”. B2: no binding (tested: 100 nM) [13]; no binding (tested: 100 nM) [14]; no binding (tested: 100 nM) [15].

B3: NYA-2044 (scFv)
scFv: GEVQLVESGGGLVQPGGSLRLSCAASGFSIRSYDIHWVRLAPGKGLEWVATISYDGSQKYYADSVKGRFTISRDESKNTLYLQMNSLRAEDTAVYHCARGSSGHYEAFDIWGQGTLVTVSSGGGGSGGGGSGGGGSQSVLTQPPSVSAAPGQKVTISCSGSSSNIGNWYVSWYQQLPGTAPKLLIYDNNKRPSGIPDRFSGSKSGTSATLGITGLQTGDEADYYCGTWDSSLSAPWVFGGGTKVTVLGAAAGAGGDYKDDDDKGAAAHHHHHH
notes: also called NYA-2044 tag adduct
In the case of B3, the Kd [1] is reported as 0.8 nM, the “standardized gMFI” value [2] is reported as 12.9 and the “standardized gMFI” value (gp100 [3]) is reported as 0.39. The “standardized gMFI” value [4] was 14.3, the “standardized gMFI” value [5] was 0.33 and the “standardized gMFI” value [6] was 0.38. For the same binder, the “standardized gMFI” value [7] was 0.72, the “standardized gMFI” value [8] was 0.47 and the “standardized gMFI” value [9] was 0.43. For the same binder, the “standardized gMFI” value (gp100 [10]) was 0.32, the binding result [11] was “no binding (tested: 100 nM)” and the binding result [12] was “no binding (tested: 100 nM)”. B3: no binding (tested: 100 nM) [13]; no binding (tested: 100 nM) [14]; no binding (tested: 100 nM) [15].

B4: NYA-2045 (scFv)
scFv: GEVQLVESGGGLVQPGGSLRLSCAASGFSIRSYDIHWVRLAPGKGLEWVATISYDGSQKYYADSVKGRFTISRDESKNTLYLQMNSLRAEDTAVYHCARGSSGHYEAFDIWGQGTLVTVSSGGGGSGGGGSGGGGSQSVLTQPPSASGTPGQRVTISCSGSSSNIGNWYVSWYQQLPGTAPKLLIYDNNKRPSGVPDRFSGSKSGTSASLAISGLQSEDEADYYCGTWDSSLSAPWVFGGGTKLTVLGAAAGAGGDYKDDDDKGAAAHHHHHH
notes: also called NYA-2045 tag adduct
In the case of B4, the Kd [1] is reported as 0.8 nM, the “standardized gMFI” value [2] is reported as 9.03 and the “standardized gMFI” value (gp100 [3]) is reported as 0.39. For the same binder, the “standardized gMFI” value [4] was 13.8, the “standardized gMFI” value [5] was 0.34 and the “standardized gMFI” value [6] was 0.43. The “standardized gMFI” value [7] was 0.58, the “standardized gMFI” value [8] was 0.48 and the “standardized gMFI” value [9] was 0.47. For the same binder, the “standardized gMFI” value (gp100 [10]) was 0.3, the binding result [11] was “no binding (tested: 100 nM)” and the binding result [12] was “no binding (tested: 100 nM)”. B4: no binding (tested: 100 nM) [13]; no binding (tested: 100 nM) [14]; no binding (tested: 100 nM) [15].

B5: NYA-2061 (scFv)
scFv: GEVQLVESGGGLVQPGGSLRLSCAASGFSIRSYDIHWVRQAPGKGLEWVATISYDGSQKYYADSVKGRFTISRDESKNTLYLQMNSLRAEDTAVYHCARGSSGHYEAFDIWGQGTLVTVSSGGGGSGGGGSGGGGSQSVLTQPPSASGTPGQRVTISCSGSSSNIGNWYVSWYQQLPGTAPKLLIYDNNKRPSGVPDRFSGSKSGTSASLAISGLQSEDEADYYCGTWDSSLSAPWVFGGGTKLTVLGAAAGAGGDYKDDDDKGAAAHHHHHH
notes: also called NYA-2061 tag adduct
For B5, the Kd [1] was 1.5 nM, the “standardized gMFI” value [2] was 8.62 and the “standardized gMFI” value (gp100 [3]) was 0.4. For the same binder, the “standardized gMFI” value [4] was 10.4, the “standardized gMFI” value [5] was 0.33 and the “standardized gMFI” value [6] was 0.4. The “standardized gMFI” value [7] was 0.57, the “standardized gMFI” value [8] was 0.48 and the “standardized gMFI” value [9] was 0.46. For the same binder, the “standardized gMFI” value (gp100 [10]) was 0.32, the binding result [11] was “no binding (tested: 100 nM)” and the binding result [12] was “no binding (tested: 100 nM)”. B5: no binding (tested: 100 nM) [13]; no binding (tested: 100 nM) [14]; no binding (tested: 100 nM) [15].

B6: NYA-2035 (scFv)
scFv: GEVQLVESGGGVVQPGRSLTPSCSASGFSIRSYDIHWVRLAPGKGLEWVATISYDGSQKYFADSVKGRFTIFRDESENMVYLQMSGLRVEDTAVYHCARGSSGHYEAFDIWGQGTMVTVSSGGGGSGGGGSGGGGSQSVLTQPPSVSAAPGQKVTISCSGSSSNIGNWKVSWYQQLPGTAPKLLIYDNNKRPSGIPDRFSGSKSGTSATLGITGLQTGDEADYYCGTWDSSLSAPWVFGGGTKVTVLGAAAGAGGDYKDDDDKGAAAHHHHHH
In the case of B6, the Kd [1] is reported as 3.2 nM, the “standardized gMFI” value [2] is reported as 9.94 and the “standardized gMFI” value (gp100 [3]) is reported as 0.38. The “standardized gMFI” value [4] was 11.1, the “standardized gMFI” value [5] was 0.33 and the “standardized gMFI” value [6] was 0.38. The “standardized gMFI” value [7] was 0.69, the “standardized gMFI” value [8] was 0.48 and the “standardized gMFI” value [9] was 0.41. For the same binder, the “standardized gMFI” value (gp100 [10]) was 0.29, the binding result [11] was “no binding (tested: 100 nM)” and the binding result [12] was “no binding (tested: 100 nM)”. B6: no binding (tested: 100 nM) [13]; no binding (tested: 100 nM) [14]; no binding (tested: 100 nM) [15].

B7: NYA-2143 (scFv)
scFv: GEVQLVESGGGVVQPGRSLTPSCSASGFSIRSYDIHWVRLAPGKGLEWVATISYDGSQKYFADSVKGRFTIFRDESENMVYLQMSGLRVEDTAVYHCARGSSGHYEAFDIWGQGTMVTVSSGGGGSGGGGSGGGGSQSVLTQPPSVSAAPGQKVTISCSGSSSNIGNWYVSWYQRLPGTAPKLLIYDNNKRPSGIPDRFSGSKSGTSATLGITGLQTGDEADYYCGTWDSSLSAPWVFGGGTKVTVLGAAAGAGGDYKDDDDKGAAAHHHHHH
B7 was tested, and the Kd [1] was 0.9 nM, the “standardized gMFI” value [2] was 13.1 and the “standardized gMFI” value (gp100 [3]) was 0.38. For the same binder, the “standardized gMFI” value [4] was 13.5, the “standardized gMFI” value [5] was 0.32 and the “standardized gMFI” value [6] was 0.38. The “standardized gMFI” value [7] was 0.69, the “standardized gMFI” value [8] was 0.46 and the “standardized gMFI” value [9] was 0.42. For the same binder, the “standardized gMFI” value (gp100 [10]) was 0.31, the binding result [11] was “no binding (tested: 100 nM)” and the binding result [12] was “no binding (tested: 100 nM)”. B7: no binding (tested: 100 nM) [13]; no binding (tested: 100 nM) [14]; no binding (tested: 100 nM) [15].
